Source: patent US20030229203

Molecular target: T1, RANTES(1-68), P13501
T1 chain: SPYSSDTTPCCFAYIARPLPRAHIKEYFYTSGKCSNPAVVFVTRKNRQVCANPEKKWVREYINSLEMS

B1: enzymatically deficient (E-) recombinant soluble human CD26 (sCD26) (protein)
chain: NKGTDDATADSRKTYTLTDYLKNTYRLKLYSLRWISDHEYLYKQENNILVFNAEYGNSSVFLENSTFDEFGHSINDYSISPDGQFILLEYNYVKQWRHSYTASYDIYDLNKRQLITEERIPNNTQWVTWSPVGHKLAYVWNNDIYVKIEPNLPSYRITWTGKEDIIYNGITDWVYEEEVFSAYSALWWSPNGTFLAYAQFNDTEVPLIEYSFYSDESLQYPKTVRVPYPKAGAVNPTVKFFVVNTDSLSSVTNATSIQITAPASMLIGDHYLCDVTWATQERISLQWLRRIQNYSVMDICDYDESSGRWNCLVARQHIEMSTTGWVGRFRPSEPHFTLDGNSFYKIISNEEGYRHICYFQIDKKDCTFITKGTWEVIGIEALTSDYLYYISNEYKGMPGGRNLYKIQLSDYTKVTCLSCELNPERCQYYSVSFSKEAKYYQLRCSGPGLPLYTLHSSVNDKGLRVLEDNSALDKMLQNVQMPSKKLDFIILNETKFWYQMILPPHFDKSKKYPLLLDVYAGPCSQKADTVFRLNWATYLASTENIIVASFDGRGSGYQGDKIMHAINRRLGTFEVEDQIEAARQFSKMGFVDNKRIAIWGWAYGGYVTSMVLGSGSGVFKCGIAVAPVSRWEYYDSVYTERYMGLPTPEDNLDHYRNSTVMSRAENFKQVEYLLIHGTADDNVHFQQSAQISKALVDVGVDFQAMWYTDEDHGIASSTAHQHIYTHMSHFIKQCFSLP
hydrolysis of rhRANTES by sCD26 (ES-MS of cleavage products): shortened RANTES was not generated by incubation of the chemokine with a mutant sCD26 deficient in enzyme activity
